The values that follow come from paper PMC12182893.

In the data set the target is Pseudotyped lentivirus displaying Omicron BA.5 S protein (PV) (SARS-CoV-2 Omicron BA.5) (UniProt P0DTC2). Nature of the data set: dot blot (filter binding).

Sequence “TTACGTCAAGGTGTCACTCCTGTGGGTGGAATGGGGAAGGGAGTGTTTTTTTTTGTGAGATGTGTGGTGTGGAATGGGGAAGCATCTCTTTGGCGTG [DRDA8]” yielded an equilibrium dissociation constant (Kd) of 0.0028 pM.

In turn, “TTACGTCAAGGTGTCACTCCTGTGGGTGGAATGGGGAAGGGAGTGTTTTTTTTTTCGGAGATGTGTGTGTGAAACAGTGGGAAGCATCTCTTTGGCGTG [DRDA10]” returned a Kd of 0.0043 pM.

As a reminder, the Kd is the equilibrium constant for the complex coming apart.
